Source: patent US20200353049A1
Where “and” joins values, the source holds several entries; their conditions need not be identical. Identical values can stand only once.

Experiments:
[1] = target: IL-22R1a extracellular domain (ECD) (UniProt Q8N6P7); assay: binding ELISA on plate-coated IL-22R1a ECD, relative to Reference Standard (100%); stored 5 C, 1 month
[2] = target: IL-22R1a extracellular domain (ECD) (UniProt Q8N6P7); assay: potency assay (binding ELISA on plate-coated IL-22R1a ECD), relative to reference standard (100%); T=0
[3] = target: IL-22R1a extracellular domain (ECD) (UniProt Q8N6P7); assay: binding ELISA on plate-coated IL-22R1a ECD, relative to Reference Standard (100%); stored 5 C, 3 months
[4] = target: IL-22R1a extracellular domain (ECD) (UniProt Q8N6P7); assay: binding ELISA on plate-coated IL-22R1a ECD, relative to Reference Standard (100%); stored -20 C, 3 months
[5] = target: IL-22R1a extracellular domain (ECD) (UniProt Q8N6P7); assay: binding ELISA on plate-coated IL-22R1a ECD, relative to Reference Standard (100%); stored -20 C, 18 months
[6] = target: IL-22R1a extracellular domain (ECD) (UniProt Q8N6P7); assay: binding ELISA on plate-coated IL-22R1a ECD, relative to Reference Standard (100%); stored -20 C, 30 months
[7] = target: IL-22R1a extracellular domain (ECD) (UniProt Q8N6P7); assay: binding ELISA on plate-coated IL-22R1a ECD, relative to Reference Standard (100%); stored -20 C, 36 months
[8] = target: IL-22R1a extracellular domain (ECD) (UniProt Q8N6P7); assay: binding ELISA on plate-coated IL-22R1a ECD, relative to Reference Standard (100%); stored -20 C, 12 months
[9] = target: IL-22R1a extracellular domain (ECD) (UniProt Q8N6P7); assay: binding ELISA on plate-coated IL-22R1a ECD, relative to Reference Standard (100%); stored -20 C, 18 months; remark: listed apart in the source
[10] = target: IL-22R1a extracellular domain (ECD) (UniProt Q8N6P7); assay: binding ELISA on plate-coated IL-22R1a ECD, relative to Reference Standard (100%); stored -20 C, 36 months; remark: listed apart in the source
[11] = target: IL-22R1a extracellular domain (ECD) (UniProt Q8N6P7); assay: binding ELISA on plate-coated IL-22R1a ECD, relative to Reference Standard (100%); stored -20 C, 48 months
[12] = target: IL-22R1a extracellular domain (ECD) (UniProt Q8N6P7); assay: potency assay (binding ELISA on plate-coated IL-22R1a ECD), relative to reference standard; 40 C stress, day 0
[13] = target: IL-22R1a extracellular domain (ECD) (UniProt Q8N6P7); assay: potency assay (binding ELISA on plate-coated IL-22R1a ECD), relative to reference standard; 40 C stress, day 5
[14] = target: IL-22R1a extracellular domain (ECD) (UniProt Q8N6P7); assay: potency assay (binding ELISA on plate-coated IL-22R1a ECD), relative to reference standard; 40 C stress, day 10
[15] = target: IL-22R1a extracellular domain (ECD) (UniProt Q8N6P7); assay: potency assay (binding ELISA on plate-coated IL-22R1a ECD), relative to reference standard; 40 C stress, day 14
[16] = target: IL-22R1a extracellular domain (ECD) (UniProt Q8N6P7); assay: binding ELISA on plate-coated IL-22R1a ECD, relative to Reference Standard; pH 7.0 formulation stored 1 week at 40 C
[17] = target: IL-22R1a extracellular domain (ECD) (UniProt Q8N6P7); assay: potency assay (binding ELISA on plate-coated IL-22R1a ECD), relative to reference standard (100%); stored 5 C, 9 months
[18] = target: IL-22R1a extracellular domain (ECD) (UniProt Q8N6P7); assay: potency assay (binding ELISA on plate-coated IL-22R1a ECD), relative to reference standard (100%); stored 5 C, 3 months
[19] = target: IL-22R1a extracellular domain (ECD) (UniProt Q8N6P7); assay: potency assay (binding ELISA on plate-coated IL-22R1a ECD), relative to reference standard (100%); stored 25 C, 3 months
[20] = target: IL-22R1a extracellular domain (ECD) (UniProt Q8N6P7); assay: potency assay (binding ELISA on plate-coated IL-22R1a ECD), relative to reference standard (100%); stored 5 C, 12 months
[21] = target: IL-22R1a extracellular domain (ECD) (UniProt Q8N6P7); assay: potency assay (binding ELISA on plate-coated IL-22R1a ECD), relative to reference standard (100%); stored 5 C, 24 months
[22] = target: IL-22R1a extracellular domain (ECD) (UniProt Q8N6P7); assay: as above; remark: listed apart in the source
[23] = target: IL-22R1a extracellular domain (ECD) (UniProt Q8N6P7); assay: potency assay (binding ELISA on plate-coated IL-22R1a ECD), relative to reference standard (100%); stored 5 C, 36 months
[24] = target: IL-22R1a extracellular domain (ECD) (UniProt Q8N6P7); assay: potency assay (binding ELISA on plate-coated IL-22R1a ECD), relative to reference standard (100%); stored 5 C, 48 months
[25] = target: IL-22R1a extracellular domain (ECD) (UniProt Q8N6P7); assay: potency assay (binding ELISA on plate-coated IL-22R1a ECD), relative to reference standard (100%); stored 5 C, 12 months (time printed as 180/12)
[26] = target: IL-22R1a extracellular domain (ECD) (UniProt Q8N6P7); assay: binding ELISA on plate-coated IL-22R1a ECD, relative to Reference Standard; 10 mM sodium phosphate, 240 mM sucrose, 0.02% PS20, pH 7.0; control sample
[27] = target: IL-22R1a extracellular domain (ECD) (UniProt Q8N6P7); assay: potency assay (binding ELISA on plate-coated IL-22R1a ECD); change after 2 weeks at 40 C; this end matches Reference Standard Batch in Table 26 (104 to 71)

Chain of UniProt Q8N6P7 (Q8N6P7 16-228 limits assumed): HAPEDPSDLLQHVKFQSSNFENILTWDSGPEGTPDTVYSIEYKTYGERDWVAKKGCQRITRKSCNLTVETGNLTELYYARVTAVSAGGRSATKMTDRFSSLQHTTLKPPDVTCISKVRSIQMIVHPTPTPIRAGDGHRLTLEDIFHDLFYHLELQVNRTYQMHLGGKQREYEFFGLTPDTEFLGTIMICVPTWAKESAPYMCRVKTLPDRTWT

Substance IL-22 Fc fusion protein has a Potency by Binding Assay (% relative potency) (% relative potency) [1] of 73, a Potency (% relative potency) (% relative potency) [2] of 73 and a Potency by Binding Assay (% relative potency) (% relative potency) [3] of 105. It also gave a Potency by Binding Assay (% relative potency) (% relative potency) [4] of 72, a Potency by Binding Assay (% relative potency) (% relative potency) [5] of 70 and a Potency by Binding Assay (% relative potency) (% relative potency) [6] of 70. It also gave a Potency by Binding Assay (% relative potency) (% relative potency) [7] of 71, a Potency by Binding Assay (% relative potency) (% relative potency) [8] of 91 and a Potency by Binding Assay (% relative potency) (% relative potency) [9] of 101. For the same substance, the Potency by Binding Assay (% relative potency) (% relative potency) [10] was 107, the Potency by Binding Assay (% relative potency) (% relative potency) [11] was 93 and the Potency (% relative potency) (% relative potency) [12] was 104 and 85. The Potency (% relative potency) (% relative potency) [13] was 80, the Potency (% relative potency) (% relative potency) [14] was 84 and 65 and the Potency (% relative potency) (% relative potency) [15] was 71 and 57. It also gave an Estimated % relative potency (n = 2) (% relative potency) [16] of 81, a Potency (% relative potency) (% relative potency) [17] of 63 and a Potency (% relative potency) (% relative potency) [18] of 104. For the same substance, the Potency (% relative potency) (% relative potency) [19] was 57, the Potency (% relative potency) (% relative potency) [20] was 67 and the Potency (% relative potency) (% relative potency) [21] was 66. For the same substance, the Potency (% relative potency) (% relative potency) [22] was 83, the Potency (% relative potency) (% relative potency) [23] was 99 and the Potency (% relative potency) (% relative potency) [24] was 91. For the same substance, the Potency (% relative potency) (% relative potency) [25] was 86, the Estimated % relative potency (n = 2) (% relative potency) [26] was 89 and the decrease in % relative potency (% relative potency) [27] was 33.
